Assays:
[1] = biological target: Ac-Y-βC19 peptide C-terminal 19-residue peptide (Escherichia coli) (UniProt P69924); conditions: cited from earlier work
[2] = time-resolved emission of free [Re]-peptides; type: physicochemical; conditions: free peptide
[3] = biological target: α2 (Escherichia coli, UniProt P00452); experiment: peptide binding to α2 by steady-state emission titration; set-up: species or system E. coli; conditions: 5 μM peptide, α2 0→65 μM, pH 7.5
[4] = MP-FRaP
[5] = cited from earlier work
[6] = [Re^II(bpy•−)]* couple; cited from earlier work
[7] = biological target: [Re]-Y-βC19 peptide (C-terminal tail of beta2) 356-375 (Escherichia coli, UniProt P69924, Re(bpy)(CO)3CN appended at N-terminus of peptide); experiment: steady-state emission titration
[Re]-Y-βC19 peptide (C-terminal tail of beta2) 356-375, sequence (P69924 356-375): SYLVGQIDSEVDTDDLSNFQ

[8] = α2 radius by DLS or crystal structure and Einstein-Stokes diffusion coefficient; conditions: for diffusion coefficient kd2: Einstein-Stokes, 25 °C, η ∼1 cP

Molecule: ribonucleotide reductase alpha2 (from UniProt P00452)
- Kd [1]: 20 µM

Molecule: CC[C@H](C)[C@H](NC(=O)[C@H](CCC(N)=O)NC(=O)CNC(=O)[C@@H](NC(=O)[C@H](CC(C)C)NC(=O)[C@H](Cc1ccc(O)cc1)NC(=O)c1ccnc(-c2cc(C)ccn2)c1)C(C)C)C(=O)N[C@@H](CC(=O)O)C(=O)N[C@@H](CO)C(=O)N[C@@H](CCC(=O)O)C(=O)N[C@H](C(=O)N[C@@H](CC(=O)O)C(=O)N[C@H](C(=O)N[C@@H](CC(=O)O)C(=O)N[C@@H](CC(=O)O)C(=O)N[C@@H](CC(C)C)C(=O)N[C@@H](CO)C(=O)N[C@@H](CC(N)=O)C(=O)N[C@@H](Cc1ccccc1)C(=O)N[C@@H](CCC(N)=O)C(=O)N[C@@H](CC(C)C)C(=O)O)[C@@H](C)O)C(C)C [[Re]-Y-βC19]
- emission decay lifetime τ1 ([2]; pH 12, bi-exponential fit): 0.5 ns
- emission decay lifetime τ2 ([2]; pH 12, bi-exponential fit): 3.0 ns
- fraction of emission decay component τ1 ([2]; pH 12, bi-exponential fit): 86%
- fraction of emission decay component τ2 ([2]; pH 12, bi-exponential fit): 14%
- emission lifetime τ ([2]; pH < 10): 62 ± 2 ns
- change of emission band upon binding to α2 [3]: the emission band blue shifts and increases in intensity
- diffusion coefficient kd1 [4]: 6.1 × 10^−7 cm^−1 s^–1

Molecule: CC(=O)N[C@@H](Cc1cc(F)c(O)c(F)c1)C(N)=O [Ac-3,5-F2Y-NH2]
- pKa of 3,5-F2Y amino acid in solution [5]: 7.2

Molecule: Re(bpy)(CO)3CN [[Re]]
- excited state reduction potential E° [6]: 1.59 V vs. NHE

B1: Ribonucleotide reductase R1 subunit alpha2 (protein)
chain: MNQNLLVTKRDGSTERINLDKIHRVLDWAAEGLHNVSISQVELRSHIQFYDGIKTSDIHETIIKAAADLISRDAPDYQYLAARLAIFHLRKKAYGQFEPPALYDHVVKMVEMGKYDNHLLEDYTEEEFKQMDTFIDHDRDMTFSYAAVKQLEGKYLVQNRVTGEIYESAQFLYILVAACLFSNYPRETRLQYVKRFYDAVSTFKISLPTPIMSGVRTPTRQFSSCVLIECGDSLDSINATSSAIVKYVSQRAGIGINAGRIRALGSPIRGGEAFHTGCIPFYKHFQTAVKSCSQGGVRGGAATLFYPMWHLEVESLLVLKNNRGVEGNRVRHMDYGVQINKLMYTRLLKGEDITLFSPSDVPGLYDAFFADQEEFERLYTKYEKDDSIRKQRVKAVELFSLMMQERASTGRIYIQNVDHCNTHSPFDPAIAPVRQSNLCLEIALPTKPLNDVNDENGEIALCTLSAFNLGAINNLDELEELAILAVRALDALLDYQDYPIPAAKRGAMGRRTLGIGVINFAYYLAKHGKRYSDGSANNLTHKTFEAIQYYLLKASNELAKEQGACPWFNETTYAKGILPIDTYKKDLDTIANEPLHYDWEALRESIKTHGLRNSTLSALMPSETSSQISNATNGIEPPRGYVSIKASKDGILRQVVPDYEHLHDAYELLWEMPGNDGYLQLVGIMQKFIDQSISANTNYDPSRFPSGKVPMQQLLKDLLTAYKFGVKTLYYQNTRDGAEDAQDDLVPSIQDDGCESGACKI
- Kd [7]: 9 µM

B2: α2: active site-containing subunit of RNR, E. coli class I, homodimer (protein, UniProt P00452 1-761, looked up)
Ribonucleoside-diphosphate …: MNQNLLVTKRDGSTERINLDKIHRVLDWAAEGLHNVSISQVELRSHIQFYDGIKTSDIHETIIKAAADLISRDAPDYQYLAARLAIFHLRKKAYGQFEPPALYDHVVKMVEMGKYDNHLLEDYTEEEFKQMDTFIDHDRDMTFSYAAVKQLEGKYLVQNRVTGEIYESAQFLYILVAACLFSNYPRETRLQYVKRFYDAVSTFKISLPTPIMSGVRTPTRQFSSCVLIECGDSLDSINATSSAIVKYVSQRAGIGINAGRIRALGSPIRGGEAFHTGCIPFYKHFQTAVKSCSQGGVRGGAATLFYPMWHLEVESLLVLKNNRGVEGNRVRHMDYGVQINKLMYTRLLKGEDITLFSPSDVPGLYDAFFADQEEFERLYTKYEKDDSIRKQRVKAVELFSLMMQERASTGRIYIQNVDHCNTHSPFDPAIAPVRQSNLCLEIALPTKPLNDVNDENGEIALCTLSAFNLGAINNLDELEELAILAVRALDALLDYQDYPIPAAKRGAMGRRTLGIGVINFAYYLAKHGKRYSDGSANNLTHKTFEAIQYYLLKASNELAKEQGACPWFNETTYAKGILPIDTYKKDLDTIANEPLHYDWEALRESIKTHGLRNSTLSALMPSETSSQISNATNGIEPPRGYVSIKASKDGILRQVVPDYEHLHDAYELLWEMPGNDGYLQLVGIMQKFIDQSISANTNYDPSRFPSGKVPMQQLLKDLLTAYKFGVKTLYYQNTRDGAEDAQDDLVPSIQDDGCESGACKI
- diffusion coefficient kd2 ([8]; DLS radius 55.8 Å): 3.9 × 10^−7 cm^2 s^−1
- diffusion coefficient kd2 ([8]; crystal structure radius 40.4 Å): 5.4 × 10^−7 cm^2 s^−1
- radius estimated from crystal structure ([8]; eq 5 with d1, d2, d3 = 100.7, 71.4, 73.2 Å): 40.4 Å
